Patent US5948668

Tests used:
[1] = biological target: recombinant rat procarboxypeptidase B expressed by plasmid pλProCPB (rat)
[2] = biological target: recombinant rat procarboxypeptidase B with the Cys290->Ser mutation, expressed by plasmid pProCPB-C (rat)

Specific Activity (u/mg) of CPB (Hippuryl-L-Arg substrate) after folding of ProCPB and trypsin treatment [1]: 42.9 u/mg
Specific Activity (u/mg) of CPB-C (Hippuryl-L-Arg substrate) after folding of ProCPB-C and trypsin treatment [2]: 20.9 u/mg
Substance: trypsin (enzyme)
